Reference: patent US20150140043A1, “IMMUNOMODULATORY METHODS USING NOTCH AGONISTS” (INSTITUT NATIONAL DE LA SANTE DE LA RECHERCHE MEDICAL …, priority 2012, published 2015)

How the values were obtained:
[1] = biological target: NOTCH on human CD4+CD25- effector T cells; experiment: cell-based or functional assay
TGF-βRII RNA expression = experiment: Quantitative real-time PCR of TGF-βRII transcripts in CD4+CD25- T cells; format: cell-based, human; settings: coated anti-CD3 and DL-4 or Jagged-1 for 3 hours, in the presence of GSI
Protocol: FIG. 3: TGF-βRII expression on effector T cells after NOTCH ligands exposure • A) CD4^+CD25^−T cells were purified using Miltenyi microbeads from PBMC and cultured for 3 hours in coated wells with anti-CD3 (200 ng/ml) and NOTCH ligands (5 μg/ml) or IgG control (5 μg/ml). Quantitative real-time PCR was performed to measure the transcripts levels of TGF-βRII. Data shown are mean±SEM and are representative of 4 independent experiments. * indicates P<0.05. • B) Protein levels of TGF-βRII in CD4^+CD25^−T cells stimulated to DL-1, DL-4 and Jagged-1 using FACS analysis. Mean of fluorescence are represented±SEM. * indicates P<0.05.
CD4^+CD25^− T cells were cultured for 3 hours in coated wells with anti-CD3 (200 ng/ml) and NOTCH ligands (5 μg/ml) or IgG control (5 μg/ml). Total RNA was extracted with Trizol (Invitrogen) and purified by chloroform extraction. RNA was then reverse transcribed using 1 mM oligodT and the Superscript™ HH Rnase H-reverse transcriptase (Invitrogen Life technologies) according to the manufacturer's instructions. Quantitative PCR was performed in a LightCycler System (Roche diagnostics) using a SYBR Green PCR kit from Roche Diagnostics. The cDNA input for each population was normalized to obtain equivalent signals with Splicing Factor 3A1 (SF3A1) used as housekeeping gene. Primers used were: […]
Active TGF-β mediates its biological functions by binding to TGF-β type I and type II receptors (TGF-βRII). Therefore, the effects of NOTCH activation on TGF-βRII expression of effector T cells were first investigated. […] This effect is abrogated in the presence of GSI (P<0.05 for comparison with culture performed without GSI vehicle).

[2] = test system: CD4+CD25- T cell proliferation; experiment: Suppression assay: CD4+CD25- T cells co-cultured with Treg plus anti-CD3, with or without g-secretase inhibitor, [3H]thymidine incorporation; format: cell-based, human; settings: for Treg-mediated suppression (percentage of inhibition of CD4+CD25- T cell proliferation): GSI added at the beginning of the coculture (10 μM), anti-CD3 1 μg/ml, 5 days, mean+/-SD
Protocol: FIG. 1: NOTCH signalling is involved in Treg mediated inhibition of anti-CD3 stimulated CD4^+CD25^− T cell proliferation • A) Various ratio of CD4^+CD25^− T cells and CD4^+CD25^high T cells were cultured for 5 days in coated wells with anti-CD3 (1 μg/ml) in the presence or not of inhibitor of g-secretase (GSI 10 μM). Percentages of inhibition were calculated from the raw data using the equations: 1—(mean cpm of co-culture wells divided by mean cpm of CD4^+CD25^− cells cultured alone)×100. The data represent the mean±SEM and are representative of 5 independent experiments. * indicates P<0.05. • B) CD4^+CD25^−T cells were cultured for 18 hours in coated wells with anti-CD3 and NOTCH ligands (5 μg/ml) or IgG control (5 μg/ml). Then, T cells were washed and incubated for 5 days in coated wells with anti-CD3 in the absence or presence of Treg at ratio 1:8. The data represent the mean±SEM of inhibition of T cell proliferation of 5 independent experiments.
Peripheral blood mononuclear cells were separated by Ficoll-Hypaque centrifugation (Amersham Biosciences) from buffy coats obtained from healthy blood donors (EFS, Créteil). CD4^+ CD25^− T cells and CD4^+CD25^high T cells were isolated using a CD4^+ T cell enrichment column and a human CD4^+CD25^+ Treg isolation kit purchased from Miltenyi Biotec. CD4^+CD25^− cells and CD4^+CD25^+ cells were enriched to greater than 95% purity. […]
A total of 2.5×10^4 CD4^+CD25^− T cells were cultured with various ratios of CD4^+CD25^high cells and 1 μg/ml of anti-CD3 for 5 days, in the presence or absence of 10 μm of the gamma-secretase inhibitor Compound E. A total of […] [^3H] thymidine (Amersham Pharmacia) was added to the wells during the last 16 hours of culture. The cells were then harvested and assessed for [^3H] thymidine incorporation using a liquid scintillation counter. Results were expressed as mean cpm of quadriplicate culture wells.
Percentage of inhibition was calculated as follows: 1−(mean cpm of co-culture wells divided by mean cpm of CD4^+CD25^− cells cultured alone)×100. […]

Compound | Percentages of inhibition of cell proliferation (CD4+CD25- T cells pre-exposed to ligand, co-cultured with Treg at ratio 1:8) [1] [%] | TGF-βRII RNA expression, fold increase against IgG control (real-time PCR, 3 hours) [1] [fold] | expression of TGF-βRII on CD4+CD25- T cells after 48 hours on ligand (flow cytometry, MFI; IgG control MFI 53) [1] [MFI] | mean inhibition of T cell proliferation (co-culture with Treg at ratio 1:16 on immobilized ligand) [1] [%] | percentage of inhibition of CD4+CD25- T cell proliferation with anti-CD3, ligand and TGF-β (0.1 ng/ml) [1] [%] | Effect of GSI on the DL-4 / Jagged-1 induced increase in TGF-βRII RNA expression (TGF-βRII RNA expression) | Treg-mediated suppression (percentage of inhibition of CD4+CD25- T cell proliferation) ([2]; Treg/Effector ratio 1:4) [%] | Treg-mediated suppression (percentage of inhibition of CD4+CD25- T cell proliferation) ([2]; Treg/Effector ratio 1:8) [%] | Effect on proliferation of CD4+CD25- T cells cultured alone ([2]; no Treg, data not shown)
DL-4-Fc (from UniProt Q9NR61 27-529) (Fc fusion) | 64.2 | 4.4 | 166 | 47 | 74.1 |  |  |  | 
Jagged-1-Fc (from UniProt P78504 34-1067) (Fc fusion) | 65 | 2.8 | 130 | 65 | 87.8 |  |  |  | 
DL-1-Fc (from UniProt O00548 18-545) (Fc fusion) | 64.8 |  | 85 |  | 42.9 |  |  |  | 
C[C@H](NC(=O)Cc1cc(F)cc(F)c1)C(=O)N[C@H]1N=C(c2ccccc2)c2ccccc2N(C)C1=O [GSI, Compound E] |  |  |  |  |  | abrogated | 46.9 | 49.3 | did not affect the proliferation
